The values below come from the supplement of paper PMC9112550, “Optimization of the antimicrobial peptide Bac7 by deep mutational scanning” (BMC Biology, 2022).

The subject of this series is Escherichia coli TOP10. The series is described as follows: shrunken log2 fold change of peptide-encoding DNA abundance (4.5 h post-induction vs induction); higher = less antimicrobial activity (less host growth inhibition). As to conditions: time post-induction: 4.5 h; library: site-saturation at positions 5, 18, 19, 20.
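Note: peptides expressed intracellularly from a pBAD plasmid library in pooled LB shake-flask culture, induced with 0.3% L-arabinose, DNA abundance read by NGS, three biological replicates, DESeq2 with apeglm shrinkage.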

As for RRIRRRPPRLPRPRPRPQILPRP, the “shrunken log2 fold change” value is 0.0332.

On to RRIRVRPPRLPRPRPRPLCGPRP, for which the “shrunken log2 fold change” value worked out at 0.0478.

With RRIRMRPPRLPRPRPRPNRAPRP, the “shrunken log2 fold change” value was 0.239.

On to RRIRWRPPRLPRPRPRPNGYPRP, for which the “shrunken log2 fold change” value was 0.186.

Turning to RRIRHRPPRLPRPRPRPHTGPRP, the “shrunken log2 fold change” value is -0.226.

Consider RRIRLRPPRLPRPRPRPWFIPRP, for which the “shrunken log2 fold change” value is -0.738.

Regarding RRIRKRPPRLPRPRPRPCSMPRP, the “shrunken log2 fold change” value was -0.00483.

RRIRYRPPRLPRPRPRPYSWPRP: the “shrunken log2 fold change” value was -0.156.

Turning to RRIRGRPPRLPRPRPRPTARPRP, the “shrunken log2 fold change” value amounted to 1.27.

In the case of RRIRYRPPRLPRPRPRPPQFPRP, the “shrunken log2 fold change” value was -0.213.

In the case of RRIRHRPPRLPRPRPRPETTPRP, the “shrunken log2 fold change” value was 0.194.

In the case of RRIRPRPPRLPRPRPRPDQFPRP, the “shrunken log2 fold change” value is -0.0233.

For RRIRLRPPRLPRPRPRPTLCPRP, the “shrunken log2 fold change” value amounted to 0.163.

Consider RRIRFRPPRLPRPRPRPMCGPRP, for which the “shrunken log2 fold change” value was -0.164.

On to RRIRQRPPRLPRPRPRPPPPPRP, for which the “shrunken log2 fold change” value was determined as 0.822.

Regarding RRIRLRPPRLPRPRPRPSHEPRP, the “shrunken log2 fold change” value worked out at 0.031.

Regarding RRIRGRPPRLPRPRPRPTIEPRP, the “shrunken log2 fold change” value is 0.673.

On to RRIRARPPRLPRPRPRPWKCPRP, for which the “shrunken log2 fold change” value amounted to 0.0662.

Consider RRIRQRPPRLPRPRPRPHWVPRP, for which the “shrunken log2 fold change” value turned out to be 0.0288.

RRIRSRPPRLPRPRPRPGVNPRP: the “shrunken log2 fold change” value is -0.398.

For the sequence RRIRVRPPRLPRPRPRPNTMPRP, the “shrunken log2 fold change” value is -0.293.

Turning to RRIRARPPRLPRPRPRPNVTPRP, the “shrunken log2 fold change” value came to 0.17.

With RRIRQRPPRLPRPRPRPVCAPRP, the “shrunken log2 fold change” value was found to be 0.118.

On to RRIRRRPPRLPRPRPRPSEFPRP, for which the “shrunken log2 fold change” value was found to be 0.00596.

With RRIRERPPRLPRPRPRPATYPRP, the “shrunken log2 fold change” value is -0.275.

For RRIRNRPPRLPRPRPRPPCMPRP, the “shrunken log2 fold change” value was -0.0283.

For RRIRKRPPRLPRPRPRPFAVPRP, the “shrunken log2 fold change” value is -0.14.

With RRIRIRPPRLPRPRPRPEAAPRP, the “shrunken log2 fold change” value was 0.538.

As to RRIRYRPPRLPRPRPRPYTVPRP, the “shrunken log2 fold change” value is -0.00544.

Regarding RRIRCRPPRLPRPRPRPHKYPRP, the “shrunken log2 fold change” value is -0.618.

With RRIRPRPPRLPRPRPRPVYCPRP, the “shrunken log2 fold change” value is -0.375.

In the case of RRIRERPPRLPRPRPRPHHMPRP, the “shrunken log2 fold change” value was -0.381.

Regarding RRIRDRPPRLPRPRPRPRDAPRP, the “shrunken log2 fold change” value was 0.59.

For the sequence RRIRLRPPRLPRPRPRPHGGPRP, the “shrunken log2 fold change” value was -0.234.

Turning to RRIRCRPPRLPRPRPRPWRCPRP, the “shrunken log2 fold change” value is 0.486.

As for RRIRWRPPRLPRPRPRPPKRPRP, the “shrunken log2 fold change” value came to 0.388.

For the sequence RRIRDRPPRLPRPRPRPRDTPRP, the “shrunken log2 fold change” value stood at 0.575.

Take RRIRARPPRLPRPRPRPCMDPRP: the “shrunken log2 fold change” value is 0.0143.

Turning to RRIRTRPPRLPRPRPRPDRSPRP, the “shrunken log2 fold change” value is -0.287.

Regarding RRIRARPPRLPRPRPRPERMPRP, the “shrunken log2 fold change” value amounted to 0.618.

Consider RRIRVRPPRLPRPRPRPKPFPRP, for which the “shrunken log2 fold change” value came out at 0.00969.

For the sequence RRIRPRPPRLPRPRPRPHMHPRP, the “shrunken log2 fold change” value was -0.438.

For RRIRQRPPRLPRPRPRPLHEPRP, the “shrunken log2 fold change” value worked out at 0.149.

As for RRIRERPPRLPRPRPRPVNCPRP, the “shrunken log2 fold change” value was -0.315.

Turning to RRIRYRPPRLPRPRPRPFCTPRP, the “shrunken log2 fold change” value was -0.425.

RRIRLRPPRLPRPRPRPKYKPRP: the “shrunken log2 fold change” value is -0.486.

In the case of RRIRPRPPRLPRPRPRPCPPPRP, the “shrunken log2 fold change” value was -0.0276.

With RRIRPRPPRLPRPRPRPFRIPRP, the “shrunken log2 fold change” value was 0.000199.

As for RRIRARPPRLPRPRPRPNSWPRP, the “shrunken log2 fold change” value was determined as 0.422.

As to RRIRLRPPRLPRPRPRPQAFPRP, the “shrunken log2 fold change” value was 0.0474.

Consider RRIRNRPPRLPRPRPRPSDPPRP, for which the “shrunken log2 fold change” value is -0.192.

Turning to RRIRNRPPRLPRPRPRPEYSPRP, the “shrunken log2 fold change” value is -0.272.

In the case of RRIRKRPPRLPRPRPRPMQIPRP, the “shrunken log2 fold change” value was -0.0337.

For the sequence RRIRTRPPRLPRPRPRPDEIPRP, the “shrunken log2 fold change” value is -0.235.

In the case of RRIRGRPPRLPRPRPRPKMYPRP, the “shrunken log2 fold change” value is 0.107.

Take RRIRFRPPRLPRPRPRPRWAPRP: the “shrunken log2 fold change” value was found to be 0.305.

As to RRIRPRPPRLPRPRPRPCKGPRP, the “shrunken log2 fold change” value is -0.252.

Take RRIRERPPRLPRPRPRPDNMPRP: the “shrunken log2 fold change” value was -0.2.

For the sequence RRIRWRPPRLPRPRPRPTIFPRP, the “shrunken log2 fold change” value was determined as 0.0443.

As for RRIRLRPPRLPRPRPRPENNPRP, the “shrunken log2 fold change” value was -0.406.

Turning to RRIRNRPPRLPRPRPRPMMRPRP, the “shrunken log2 fold change” value turned out to be 0.0611.

For the sequence RRIRMRPPRLPRPRPRPMRVPRP, the “shrunken log2 fold change” value amounted to 0.035.

Consider RRIRTRPPRLPRPRPRPGPHPRP, for which the “shrunken log2 fold change” value stood at 0.124.

As to RRIRERPPRLPRPRPRPMGNPRP, the “shrunken log2 fold change” value is 0.0248.

On to RRIRCRPPRLPRPRPRPKYEPRP, for which the “shrunken log2 fold change” value was -0.403.

With RRIRGRPPRLPRPRPRPMHVPRP, the “shrunken log2 fold change” value came out at 0.0539.

For RRIRPRPPRLPRPRPRPWRDPRP, the “shrunken log2 fold change” value was -0.00123.

In the case of RRIRNRPPRLPRPRPRPYNYPRP, the “shrunken log2 fold change” value was -0.067.

In the case of RRIRGRPPRLPRPRPRPFYPPRP, the “shrunken log2 fold change” value was -0.62.

On to RRIRSRPPRLPRPRPRPWKNPRP, for which the “shrunken log2 fold change” value is -0.0508.

For RRIRIRPPRLPRPRPRPCKLPRP, the “shrunken log2 fold change” value is -0.167.

As to RRIRPRPPRLPRPRPRPVCQPRP, the “shrunken log2 fold change” value was -0.1.

For RRIRFRPPRLPRPRPRPQICPRP, the “shrunken log2 fold change” value is -0.135.

For the sequence RRIRDRPPRLPRPRPRPLVDPRP, the “shrunken log2 fold change” value amounted to 0.11.

In the case of RRIRERPPRLPRPRPRPLVGPRP, the “shrunken log2 fold change” value was -0.198.

As for RRIRMRPPRLPRPRPRPIRKPRP, the “shrunken log2 fold change” value was determined as 0.553.

In the case of RRIRFRPPRLPRPRPRPQFRPRP, the “shrunken log2 fold change” value was -0.174.

With RRIRVRPPRLPRPRPRPYQAPRP, the “shrunken log2 fold change” value is -0.293.

For the sequence RRIRHRPPRLPRPRPRPASMPRP, the “shrunken log2 fold change” value was 0.0822.

For RRIRHRPPRLPRPRPRPHADPRP, the “shrunken log2 fold change” value is -0.208.

As to RRIRNRPPRLPRPRPRPVWPPRP, the “shrunken log2 fold change” value was found to be 0.199.

As for RRIRLRPPRLPRPRPRPLDKPRP, the “shrunken log2 fold change” value was -0.122.

Take RRIRIRPPRLPRPRPRPTRIPRP: the “shrunken log2 fold change” value came to 0.0411.

As to RRIRVRPPRLPRPRPRPQWSPRP, the “shrunken log2 fold change” value was -0.201.

On to RRIRYRPPRLPRPRPRPKIHPRP, for which the “shrunken log2 fold change” value is -1.18.

RRIRCRPPRLPRPRPRPWYAPRP: the “shrunken log2 fold change” value is -0.529.

On to RRIRYRPPRLPRPRPRPWEYPRP, for which the “shrunken log2 fold change” value was -0.142.

With RRIRHRPPRLPRPRPRPGIWPRP, the “shrunken log2 fold change” value was 0.139.

In the case of RRIRNRPPRLPRPRPRPQMDPRP, the “shrunken log2 fold change” value worked out at 0.0304.

For the sequence RRIRKRPPRLPRPRPRPCGNPRP, the “shrunken log2 fold change” value came to 0.0169.

In the case of RRIRPRPPRLPRPRPRPSNPPRP, the “shrunken log2 fold change” value is -0.0794.

Regarding RRIRSRPPRLPRPRPRPFTCPRP, the “shrunken log2 fold change” value is -0.0185.

As for RRIRPRPPRLPRPRPRPQYAPRP, the “shrunken log2 fold change” value is -0.103.

Turning to RRIRMRPPRLPRPRPRPSKVPRP, the “shrunken log2 fold change” value was found to be 0.167.

Take RRIRWRPPRLPRPRPRPTMQPRP: the “shrunken log2 fold change” value was 0.13.

For RRIRARPPRLPRPRPRPWTVPRP, the “shrunken log2 fold change” value is -0.0846.

RRIRTRPPRLPRPRPRPPHMPRP: the “shrunken log2 fold change” value was -0.101.

RRIRARPPRLPRPRPRPQHNPRP: the “shrunken log2 fold change” value was -0.26.

For RRIRMRPPRLPRPRPRPWGWPRP, the “shrunken log2 fold change” value amounted to 1.08.

As for RRIRIRPPRLPRPRPRPLGRPRP, the “shrunken log2 fold change” value worked out at 0.39.

Consider RRIRSRPPRLPRPRPRPEGVPRP, for which the “shrunken log2 fold change” value worked out at 0.552.

As for RRIRFRPPRLPRPRPRPTAKPRP, the “shrunken log2 fold change” value was determined as 0.444.

RRIRHRPPRLPRPRPRPVSRPRP: the “shrunken log2 fold change” value is -0.0482.

Regarding RRIRIRPPRLPRPRPRPTEHPRP, the “shrunken log2 fold change” value was -0.449.

As to RRIRQRPPRLPRPRPRPGAYPRP, the “shrunken log2 fold change” value was -0.506.

With RRIRCRPPRLPRPRPRPFMTPRP, the “shrunken log2 fold change” value was -0.737.

As for RRIRGRPPRLPRPRPRPAVKPRP, the “shrunken log2 fold change” value was determined as 0.0152.

As for RRIRVRPPRLPRPRPRPVYAPRP, the “shrunken log2 fold change” value is -0.00846.

As for RRIRHRPPRLPRPRPRPFRDPRP, the “shrunken log2 fold change” value is 0.0888.

In the case of RRIRARPPRLPRPRPRPCKDPRP, the “shrunken log2 fold change” value came out at 0.0511.

Turning to RRIRTRPPRLPRPRPRPWDEPRP, the “shrunken log2 fold change” value is -0.167.

Take RRIRGRPPRLPRPRPRPWMQPRP: the “shrunken log2 fold change” value was -0.539.

RRIRGRPPRLPRPRPRPDGAPRP: the “shrunken log2 fold change” value is 1.03.

Regarding RRIRPRPPRLPRPRPRPLSAPRP, the “shrunken log2 fold change” value amounted to 0.281.

Take RRIRHRPPRLPRPRPRPHLHPRP: the “shrunken log2 fold change” value was -0.513.

With RRIRLRPPRLPRPRPRPNWNPRP, the “shrunken log2 fold change” value was -0.386.

With RRIRVRPPRLPRPRPRPGCEPRP, the “shrunken log2 fold change” value worked out at 2.45.

With RRIRCRPPRLPRPRPRPTMVPRP, the “shrunken log2 fold change” value is -0.33.

RRIRDRPPRLPRPRPRPDLTPRP: the “shrunken log2 fold change” value came to 0.00118.

As for RRIRGRPPRLPRPRPRPQSIPRP, the “shrunken log2 fold change” value amounted to 0.108.

For the sequence RRIRRRPPRLPRPRPRPAIQPRP, the “shrunken log2 fold change” value came out at 0.561.

As to RRIRFRPPRLPRPRPRPGALPRP, the “shrunken log2 fold change” value worked out at 0.0277.

As to RRIRARPPRLPRPRPRPLTAPRP, the “shrunken log2 fold change” value worked out at 0.542.

Regarding RRIRQRPPRLPRPRPRPQTLPRP, the “shrunken log2 fold change” value is -0.319.

Take RRIRCRPPRLPRPRPRPFCQPRP: the “shrunken log2 fold change” value was -0.353.
